Substitutions are numbered along the chain they refer to. Values belong to the binder of their own block, whether it stands above or below them.
Target: T1, Cynomolgus PAR2 on BacMam-infected HEK293 cells (cynomolgus)
T1 construct: whole, on cells; also called cyno PAR-2; Cyno PAR2
Test: flow cytometry on HEK293F-cynoPAR2 (3.0E+06 cells/mL, w/ NaN3), overnight at about 5 C, S/BG [continued]

EC50 (read off the curve): ~2 nM
B1: Fab Y022870 (Fab, V domains shown)
VH: EVQLLESGGGLVQPGGSLRLSCAASGFSFSRYAITWVRQAPGKGLEWVSTISALGLETYYAESVRGRFTISRDNSKNTLYLQMNSLRAEDTAVYYCARGFHYTHSGKRYYYPFDIWGQGTLVTVSS
VL: QSALTQPASVSGSPGQSITISCTGTSSDVGSYNLVSWYQQHPGKAPKLMIYEGSKRPSGVSNRFSGSKSGNTASLTISGLQAEDEADYYCSQYATFIAFAVFGGGTKLTVLG

EC50 (read off the curve): ~4 nM
B2: Fab Y022883 (Fab, V domains shown)
VH: B1 VH with S30T, T35S, T50V, A53G, L54H, L56S, T58A, Y59N, R65K
VL: B1 VL

— patent US20250313621A1 (NXERA PHARMA UK, published 2025)
